System: O=C(Cc1cccs1)N[C@@H]1C(=O)N2C(C(=O)O)=C(/C=C/c3ccc([N+](=O)[O-])cc3[N+](=O)[O-])CS[C@H]12
Assay: purified protein
Conditions: Zn2+ enzyme; steady-state buffer and pH not given here; King-Altman value from pre-steady-state data listed separately

MIM-1 (Novosphingobium pentaromativorans US6-1)
Km: 41 ± 10 µM
kcat: 17 ± 4 s⁻¹

SAM-1 (Simiduia agarivorans SA1 = DSM 21679)
Km: 20 ± 3 µM
kcat: 10 ± 5 s⁻¹
